Reference: paper PMC6082832, “Effects of polymorphic variation on the thermostability of heterogenous populations of CYP3A4 and CYP2C9 enzymes in solution” (Scientific Reports, 2018)

Target: the molecule itself
Test: SEC; BioSep-SEC-S3000 column (5-700 kDa), room temperature, 0.5 ml/min, 100 mM potassium phosphate pH 7.4; 20 µl sample at ~2 mg/ml total protein; monitored at 410 nm; sizes estimated from the Bio-Rad gel filtration standard calibration curve

B1: CYP2C9 wild-type, N-terminally truncated, His-tagged recombinant protein (enzyme, human, UniProt P11712 29-490, looked up)
chain: LPPGPTPLPVIGNILQIGIKDISKSLTNLSKVYGPVFTLYFGLKPIVVLHGYEAVKEALIDLGEEFSGRGIFPLAERANRGFGIVFSNGKKWKEIRRFSLMTLRNFGMGKRSIEDRVQEEARCLVEELRKTKASPCDPTFILGCAPCNVICSIIFHKRFDYKDQQFLNLMEKLNENIKILSSPWIQICNNFSPIIDYFPGTHNKLLKNVAFMKSYILEKVKEHQESMDMNNPQDFIDCFLMKMEKEKHNQPSEFTIESLENTAVDLFGAGTETTSTTLRYALLLLLKHPEVTAKVQEEIERVIGRNRSPCMQDRSHMPYTDAVVHEVQRYIDLLPTSLPHAVTCDIKFRNYLIPKGTTILISLTSVLHDNKEFPNPEMFDPHHFLDEGGNFKKSKYFMPFSAGKRICVGEALAGMELFLFLTSILQNFNLKSLVDPKNLDTTPVVNGFASVPPFYQLCFIPV
modifications: biotin on the BCCP tag (50 µM biotin added to facilitate biotinylation)
notes: cytochrome P450 2C9, human; Vector pBJW102.2 (pQE-80L with BCCP and a glycine-serine linker 3' to the His-6 tag); also called CYP2C9 WT; source: E. coli DH5α, purified (Protino Ni-TED His-tag purification)
**Q.** For B1, which “stoichiometry N” value is on record?
**A.** The value was ~8 subunits.
